Entries after “also recorded” stand apart in the source; their conditions may differ.
Legend:
[1] = molecular target: T1, human MDR1 extracellular loops 1 and 4 (ECD1, ECD4) (Homo sapiens, UniProt P08183); experiment: Epitope mapping with mutant human MDR1 expressed on 293T cells (flow cytometry); type: binding; settings: extracellular loop 1 and extracellular loop 4
T1 construct: FLAG (C); expressed in transfected cells; host or cells: 293T
Text: (§1) To determine binding of anti-MDR1 mAbs listed in Table 2 to the two major extracellular loops 1 and 4 of MDR1, various mutations were constructed to alter or substitute these two loops. To examine binding to cynomolgus extracellular loops, the extracellular loop 1 and/or loop 4 of cynomolgus MDR1 were grafted (with a C-terminal FLAG tag) to substitute for the human loops in the human MDR1 using standard techniques. To examine binding dependence on the normal human loops, MDR1 variants with deletion 79-102 and deletion 82-99 in loop 1 were also generated. Loop 1 is also referred to as ECD1. Loop 4 is also referred to as ECD4. These mutant MDR1 efflux pump variants were expressed on 293T cells using standard methods to generate cells that could be used to distinguish binding of various anti-MDR1 mAbs. The different cells were incubated with different anti-MDR1 mAbs for about 1 hour at 4° C. The cells were washed twice with FACS buffer (PBS containing 0.5% BSA). Alexa647 labeled goat anti-human antibody was added as a secondary antibody, and the samples were incubated on ice for another 1 hour. Samples were washed again and analyzed by flow cytometry.
(§2) FIG. 9 summarizes the findings from preliminary epitope mapping using mutant human MDR1. […] For example, anti-MDR1 mAb B1.129 requires ECD1 and ECD4 for binding to human MDR1. All of the anti-MDR1 antibodies contact ECD4. […] ECD1 refers to the first extracellular domain of human ABCB1, ECD4 refers to the fourth extracellular domain of human ABCB1 and “others” refers to the remainder of the extracellular domains 2-3 and 5-6 of human ABCB1. Only binding to ECD1 and ECD4 was tested.

[2] = tested on: A2780 ADR ovarian carcinoma; experiment: A2780 ADR drug-resistant ovarian carcinoma model in nude mice; type: in vivo; settings: for tumor volume, single agent: antibody as a single agent; for tumor volume, in combination with paclitaxel: antibody plus paclitaxel
Description: (§3) Anti-ABCB1 antibodies B1.129, B1.261, B1.223, B1.225, B1.188, B1.28, and B1.226 were tested for effect on growth of tumors in immunodeficient mice. The following cancer cell lines were used for generating tumor models.
A2780 ADR: The adriamycin-resistant cell line A2780ADR has been developed by exposure of the parent A2780 cell line (Sigma catalogue no. 93112519) to adriamycin. A2780ADR is cross-resistant to melphalan and vinblastine. To retain resistance adriamycin has to be added to the media. The cells grow as a monolayer and in suspension in spinner cultures and are tumorigenic in immune deficient mice. Together with the cisplatin-resistant variant A2780cis these lines only differ in their exposure to a single drug and should facilitate the search for molecular changes responsible for the expression of pleiotropic drug resistance in human ovarian cancer.
Nude mice were implanted with A2780 ADR cells to model ovarian carcinoma. Anti-B1 monoclonal antibodies are efficacious in A2780 ADR ovarian carcinoma model in nude mice.

[3] = tested on: MES-SA DX5 uterine sarcoma; experiment: MES-SA DX5 uterine sarcoma model in NSG mice; type: in vivo
Text: NSG mice were implanted with MES-SA DX5 cells to model uterine sarcoma. Anti-B1 monoclonal antibodies are efficacious in MES-SA DX5 uterine sarcoma model in NSG mice.

[4] = tested on: MES-SA DX5 uterine sarcoma; experiment: MES-SA DX5 drug-resistant uterine sarcoma model in nude mice; type: in vivo; settings: for tumor volume / tumor growth, single agent / tumor volume / tumor growth, in combination with paclitaxel: MES-SA DX5, nude mice; for tumor volume / tumor growth, single agent: antibody as a single agent; for tumor volume / tumor growth, in combination with paclitaxel: antibody plus paclitaxel
Description: as §3
MES-SA DX5: The multi drug-resistant cell line MES-SA/Dx5 (Sigma. 95051031) was derived from the human uterine sarcoma cell line MES-SA (Sigma Catalogue number. 95051030) which was originally obtained from a tumour from a person at the time of hysterectomy. […] Cross resistance to bleomycin, cisplatin, carmustine, 5-fluorouracil or methotrexate was not observed.
Nude mice were implanted with MES-SA DX5 cells to model uterine sarcoma. Anti-B1 monoclonal antibodies are efficacious in MES-SA DX5 uterine sarcoma model in nude mice.

cynomolgus MDR1 = experiment: Antibody binding to 293T cells transfected with cynomolgus MDR1
cynomolgus MDR1, sequence (as listed by the source): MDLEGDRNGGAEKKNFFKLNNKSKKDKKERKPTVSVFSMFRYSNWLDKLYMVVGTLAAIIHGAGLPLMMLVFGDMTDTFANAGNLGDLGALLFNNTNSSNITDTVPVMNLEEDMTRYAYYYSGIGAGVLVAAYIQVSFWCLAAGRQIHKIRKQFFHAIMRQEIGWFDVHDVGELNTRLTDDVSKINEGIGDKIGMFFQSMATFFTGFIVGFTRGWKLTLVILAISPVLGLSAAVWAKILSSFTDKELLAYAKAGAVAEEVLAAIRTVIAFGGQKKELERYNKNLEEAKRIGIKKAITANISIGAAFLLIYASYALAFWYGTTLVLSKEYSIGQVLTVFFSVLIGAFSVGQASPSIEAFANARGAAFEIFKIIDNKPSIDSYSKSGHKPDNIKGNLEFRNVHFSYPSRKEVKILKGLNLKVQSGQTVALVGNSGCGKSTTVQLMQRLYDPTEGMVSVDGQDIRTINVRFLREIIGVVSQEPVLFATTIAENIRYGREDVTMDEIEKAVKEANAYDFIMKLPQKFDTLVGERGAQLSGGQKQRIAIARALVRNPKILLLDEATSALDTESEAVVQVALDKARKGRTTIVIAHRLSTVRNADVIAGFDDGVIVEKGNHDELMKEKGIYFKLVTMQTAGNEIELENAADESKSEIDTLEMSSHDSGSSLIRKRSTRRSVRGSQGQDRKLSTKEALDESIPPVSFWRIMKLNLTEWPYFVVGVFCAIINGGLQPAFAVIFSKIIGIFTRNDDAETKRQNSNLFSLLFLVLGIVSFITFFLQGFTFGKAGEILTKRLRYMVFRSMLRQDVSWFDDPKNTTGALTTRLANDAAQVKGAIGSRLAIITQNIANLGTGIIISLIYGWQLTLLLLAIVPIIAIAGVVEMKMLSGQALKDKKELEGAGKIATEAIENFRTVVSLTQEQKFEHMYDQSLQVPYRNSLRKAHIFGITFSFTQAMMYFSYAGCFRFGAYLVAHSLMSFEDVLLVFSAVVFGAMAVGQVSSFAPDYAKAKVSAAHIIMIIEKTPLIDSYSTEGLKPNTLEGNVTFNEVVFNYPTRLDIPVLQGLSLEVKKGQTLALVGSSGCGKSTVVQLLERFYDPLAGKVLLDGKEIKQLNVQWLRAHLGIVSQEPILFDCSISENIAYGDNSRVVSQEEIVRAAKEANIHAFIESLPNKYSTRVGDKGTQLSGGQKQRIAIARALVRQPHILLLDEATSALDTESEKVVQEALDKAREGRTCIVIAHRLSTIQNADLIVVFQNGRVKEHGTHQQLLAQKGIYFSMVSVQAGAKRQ
Description: (§4) Anti-MDR1 mAb B1.129 and a humanized version thereof were assessed for binding to 293T cell line overexpressing human MDR1 or to 293T cells transfected with cynomolgus MDR1. […] B1.129.hz1 and B1.129.hz2 antibodies are the same as the humanized versions B1.129.huH1-huL1(KV3) and B1.129.huH1-huL1(KV1), respectively, listed in Table 2. FIG. 10C summarizes the binding data for the B1.129 antibody.
Anti-MDR1 mAb B1.28 and a humanized version thereof were assessed for binding to 293T cell line overexpressing human MDR1 or to 293T cells transfected with cynomolgus MDR1.

[5] = tested on: human MDR1 extracellular loops 1 and 4 (ECD1, ECD4); experiment: Epitope mapping with mutant human MDR1 expressed on 293T cells (flow cytometry); type: binding; settings: mutant versus WT human ABCB1; preliminary epitope mapping
Text: as §1, §2

human MDR1 [6] = molecular target: T2, human MDR1 (Homo sapiens, UniProt P08183); experiment: Efflux blockade of MDR1 fluorescent substrates (flow cytometry); type: cell-based
T2 construct: expressed in transfected cells
Description: HEK 293T cells expressing human MDR1 or MES-SA/DX5 cells expressing human MDR1 were washed several times and aliquoted into 96-well plates as 50 µl aliquots/well at a cell density of 1 x 10e6 cells per ml in phenol red-free DMEM. Cells were mixed with 300 nM to 1 nM antibodies and incubated for 1 h at 37° C. To determine efflux blockade cells were incubated in the presence of B1 fluorescent substrates as follows: 0.6 µM Rhodamine; 5 µM […] (DiOC2(3)) or 0.6 µM Calcein AM for 1.5 h at 37° C. The cells were then washed twice and finally resuspended in […] PBS. Rhodamine, DiOC2(3) or Calcein AM fluorescence were measured by flow cytometry.
Effect of anti-MDR1 antibodies on efflux of MDR1 substrates Calcein, DIOC2, and Rhodamine was assessed as described in efflux blockade experimental procedure.

human MDR1 [7] = molecular target: T2, human MDR1; experiment: Antibody binding/titration to 293T cells overexpressing human MDR1 (FACS); settings: 293T cell line overexpressing human MDR1
Description: Antibody binding to cells was evaluated by flow cytometry. 293T cells stably transfected to express human ABCB1 (293T_KPB1_OX) were washed once in flow cytometry buffer (PBS + 2% FBS + 0.02% sodium azide), resuspended at 2 x 10 \^6 cells/mL in flow cytometry buffer, and dispensed into 96-well microtiter plates at 0.1 mL/well. In the figures, “B1” refers to ABCB1 (also known as MDR1 or Pgp). Recombinant antibodies were added to cells at 5 ug/mL for initial binding confirmation, or serially diluted from 100 ug/mL in flow cytometry buffer. After incubating cells on ice for 30 min, cells were washed twice with flow cytometry buffer. Bound antibody was detected with PE-labeled F(ab′)2 fragment goat anti-human IgG (Jackson ImmunoResearch) and evaluated on an Attune NxT flow cytometer.
Binding titration of recombinant antibodies to ABCB1 transfectants was performed by 3-fold serial dilution of antibodies from 666.7 nM. Diluted antibody in flow cytometry buffer was incubated with cells on ice for 30 min. After 2 washes with flow cytometry buffer, bound antibody was detected with PE-labeled F(ab′)2 fragment goat anti-human IgG (Jackson ImmunoResearch) diluted 1:200 in flow cytometry buffer and incubated with cells for 20 min on ice. After 2 washes with flow cytometry buffer fluorescence was measured on an Attune NxT flow cytometer. Data were analyzed with GraphPad Prism 8.0 software to determine EC50′s.
as §4

Molecule	epitope on human MDR1 [1]	tumor volume, single agent [2]	tumor volume, in combination with paclitaxel [2]	sensitization of MES-SA DX5 uterine sarcoma to paclitaxel [3]	tumor volume / tumor growth, single agent [4]	tumor volume / tumor growth, in combination with paclitaxel [4]	sensitization of MES-SA DX5 uterine sarcoma to paclitaxel ([4]; MES-SA DX5 tumors in vivo)	binding to cynomolgus MDR1 (cB1) (cynomolgus MDR1)	ECD1 required for antibody binding to human ABCB1 [5]	ECD4 required for antibody binding to human ABCB1 [5]	inhibition of efflux of DIOC2 (human MDR1 [6]; 293T.hB1 cell line)	inhibition of efflux of Rhodamine (human MDR1 [6]; 293T.hB1 cell line)	inhibition of efflux of DIOC2 (human MDR1 [6]; MES-SA/Dx5 cells)	inhibition of efflux of Rhodamine (human MDR1 [6]; MES-SA/Dx5 cells)	inhibition of efflux of Calcein (human MDR1 [6]; cell line not given)	binding to human MDR1 (hB1) (human MDR1 [7])
B1.223: anti-MDR1 antibody, Mouse; VH SEQ ID NO:102, VL SEQ ID NO:104 (antibody, listed as Mus musculus, V domains shown) VH: EVKLVESGGALVKPGGSLKLSCAASGFTFSNYAMSWVRQTPEKRLEWVATISSGGSYTYYPDSVKGRFTISRDNAKTTLYLQMSGLRSEDTALYYCAKFSNYGRFASWGQGTLVTVSS VL: DIQMIQSPLSLPVSLGDQASISCRSSQSIVHSSGNTYLEWYLQKPGQSPRLLIYKVSNRFFGVPDRISGSGSGTDFTLRISRVEAEDLGVYYCFQGSHVPYTFGGGTKLELK	bind to an epitope comprising extracellular loop 1 and extracellular loop 4	decreased tumor volume	decreased tumor volume	sensitizes	decreased tumor volume	decreased tumor volume	sensitized	–	–	–	–	–	–	–	–	–
B1.129: anti-MDR1 antibody, Mouse; VH SEQ ID NO:56, VL SEQ ID NO:60 (antibody, listed as Mus musculus, V domains shown) VH: EVQLQQSGPELVKPGASVKMSCKASGYTFSTYVIHWVKQKPGQGLEWIGYIYPYNDYTKYNEKFKDKATLTSDKSSSTAYMEIRSLTSEDSAVYYCSRAYYGNLVGYGVDYWGQGTSVTVSS VL: QIVLTQSPAILPASPGEKVTMTCRASSSVSFIYWYQQRPGSSPKPWIFATSNLASGVPARFSGSGSGTSYSLTISRVEAEDAATYYCHQWGSNLPTFGGGTKLEIK	bind to an epitope comprising extracellular loop 1 and extracellular loop 4	decreased tumor volume	decreased tumor volume	–	decreased tumor volume; also recorded: more effective in inhibiting tumor growth than 15D3 antibody	decreased tumor volume; also recorded: more effective in inhibiting tumor growth than 15D3 antibody	–	binds	requires	requires	inhibited efflux	inhibited efflux	inhibited efflux	inhibited efflux	inhibited efflux of Calcein to a greater extent than the anti-MDR1 antibody 15D3	binds

Source: patent publication US20230203156A1, “ANTI-MDR1 ANTIBODIES AND USES THEREOF” (KENJOCKETY BIOTECHNOLOGY, INC., priority 2020, published 2023)
